Measurements as given in patent US20230192860A1 (published 2023).

Experiments:
[1] = molecular target: T1, monovalent hVISTA-ECD (amino acids 32-193 of SEQ ID NO: 1 with a 7xHis tail) (UniProt Q9H7M9 33-193); experiment: SPR; pH 6.7
[2] = molecular target: T1, monovalent hVISTA-ECD (amino acids …); experiment: SPR; pH 7.4
[3] = molecular target: T1, monovalent hVISTA-ECD (amino acids …); experiment: SPR; pH 6.0
[4] = molecular target: T1, monovalent hVISTA-ECD (amino acids …); experiment: SPR; pH 6.7; remark: listed apart in the source
[5] = molecular target: T1, monovalent hVISTA-ECD (amino acids …); experiment: SPR; pH 6.0; remark: listed apart in the source

T1 sequence (Q9H7M9 other isoform, or with tags, fused parts or gaps): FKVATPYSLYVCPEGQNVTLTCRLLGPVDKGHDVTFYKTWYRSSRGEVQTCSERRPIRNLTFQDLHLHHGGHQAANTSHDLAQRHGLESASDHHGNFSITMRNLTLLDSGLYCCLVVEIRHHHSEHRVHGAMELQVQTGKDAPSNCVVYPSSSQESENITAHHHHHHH

Kd [1] [nM]	Kd [2] [nM]	Kd [3] [nM]	Kd [4] [nM]	Kd [5] [nM]	Binder
			210	3.2	P1-070906 (P1-068767_D52N) (antibody, V domains shown) VH: EVQLVESGGGLVQPGKSLRLSCAASGFTLEDYAMHWVRQAPGKGLEWVSGINWNSENIGYADSVKGRFTISRDNAKNSLYLQMNSLRTEDTALYYCAKVPGYSGGWIDAEDDWGQGTMVTVSS VL: not shown
				8.3	P1-070922 (P1-068767_E30D_E55A) (antibody, V domains shown) VH: EVQLVESGGGLVQPGKSLRLSCAASGFTLDDYAMHWVRQAPGKGLEWVSGIDWNSANIGYADSVKGRFTISRDNAKNSLYLQMNSLRTEDTALYYCAKVPGYSGGWIDAEDDWGQGTMVTVSS VL: not shown
			120	4	P1-070916 (P1-068767_D52N_E55A) (antibody, V domains shown) VH: EVQLVESGGGLVQPGKSLRLSCAASGFTLEDYAMHWVRQAPGKGLEWVSGINWNSANIGYADSVKGRFTISRDNAKNSLYLQMNSLRTEDTALYYCAKVPGYSGGWIDAEDDWGQGTMVTVSS VL: not shown
		10			P1-070900 (P1-068761_E56N_H100G) (antibody, V domains shown) VH: EVQLVESGGGLVQPGKSLRLSCAASGFTLEDEAMHWVRQAPGKGLEWVSGINWNSENIGYADSVKGRFTISRDNAKNSLYLQMNSLRTEDTALYYCAKVPGYSGGWIDAEDVWGQGTMVTVSS VL: not shown
				9.6	P1-070904 (P1-068767_E30D) (antibody, V domains shown) VH: EVQLVESGGGLVQPGKSLRLSCAASGFTLDDYAMHWVRQAPGKGLEWVSGIDWNSENIGYADSVKGRFTISRDNAKNSLYLQMNSLRTEDTALYYCAKVPGYSGGWIDAEDDWGQGTMVTVSS VL: not shown
210		21			P1-070878 (P1-068761_E55A_E56N) (antibody, V domains shown) VH: EVQLVESGGGLVQPGKSLRLSCAASGFTLEDEAMHWVRQAPGKGLEWVSGINWNSANIGYADSVKGRFTISRDNAKNSLYLQMNSLRTEDTALYYCAKVPGYSHGWIDAEDVWGQGTMVTVSS VL: not shown
230		4.4			P1-070872 (P1-068761_H100G) (antibody, V domains shown) VH: EVQLVESGGGLVQPGKSLRLSCAASGFTLEDEAMHWVRQAPGKGLEWVSGINWNSEEIGYADSVKGRFTISRDNAKNSLYLQMNSLRTEDTALYYCAKVPGYSGGWIDAEDVWGQGTMVTVSS VL: not shown
			120	5.8	P1-070914 (P1-068767_E30D_D52N) (antibody, V domains shown) VH: EVQLVESGGGLVQPGKSLRLSCAASGFTLDDYAMHWVRQAPGKGLEWVSGINWNSENIGYADSVKGRFTISRDNAKNSLYLQMNSLRTEDTALYYCAKVPGYSGGWIDAEDDWGQGTMVTVSS VL: not shown
~110		12			P1-070890 (P1-068761_E30D_E55A) (antibody, V domains shown) VH: EVQLVESGGGLVQPGKSLRLSCAASGFTLDDEAMHWVRQAPGKGLEWVSGINWNSAEIGYADSVKGRFTISRDNAKNSLYLQMNSLRTEDTALYYCAKVPGYSHGWIDAEDVWGQGTMVTVSS VL: not shown
			380	5.7	P1-070908 (P1-068767_E55A) (antibody, V domains shown) VH: EVQLVESGGGLVQPGKSLRLSCAASGFTLEDYAMHWVRQAPGKGLEWVSGIDWNSANIGYADSVKGRFTISRDNAKNSLYLQMNSLRTEDTALYYCAKVPGYSGGWIDAEDDWGQGTMVTVSS VL: not shown

Second part, the binder before the results:

Binder	Kd [1] [nM]	Kd [2] [nM]	Kd [3] [nM]	Kd [4] [nM]	Kd [5] [nM]
P1-068761_H100G_E100fF (antibody, V domains shown) VH: EVQLVESGGGLVQPGKSLRLSCAASGFTLEDEAMHWVRQAPGKGLEWVSGINWNSEEIGYADSVKGRFTISRDNAKNSLYLQMNSLRTEDTALYYCAKVPGYSGGWIDAFDVWGQGTMVTVSS VL: not shown	2.3	41	0.23		
P1-070870 (P1-068761_E56N) (antibody, V domains shown) VH: EVQLVESGGGLVQPGKSLRLSCAASGFTLEDEAMHWVRQAPGKGLEWVSGINWNSENIGYADSVKGRFTISRDNAKNSLYLQMNSLRTEDTALYYCAKVPGYSHGWIDAEDVWGQGTMVTVSS VL: not shown	~8200		19		
P1-068761_E32Y (antibody, V domains shown) VH: EVQLVESGGGLVQPGKSLRLSCAASGFTLEDYAMHWVRQAPGKGLEWVSGINWNSEEIGYADSVKGRFTISRDNAKNSLYLQMNSLRTEDTALYYCAKVPGYSHGWIDAEDVWGQGTMVTVSS VL: not shown	1.6	18	0.21		
P1-068767_E100fF (antibody, V domains shown) VH: EVQLVESGGGLVQPGKSLRLSCAASGFTLEDYAMHWVRQAPGKGLEWVSGIDWNSENIGYADSVKGRFTISRDNAKNSLYLQMNSLRTEDTALYYCAKVPGYSGGWIDAFDDWGQGTMVTVSS VL: not shown				5200	~42
P1-068761_E30D_E100fF (antibody, V domains shown) VH: EVQLVESGGGLVQPGKSLRLSCAASGFTLDDEAMHWVRQAPGKGLEWVSGINWNSEEIGYADSVKGRFTISRDNAKNSLYLQMNSLRTEDTALYYCAKVPGYSHGWIDAFDVWGQGTMVTVSS VL: not shown	3.7	48	0.43		
P1-068761_E32Y_E100fF (antibody, V domains shown) VH: EVQLVESGGGLVQPGKSLRLSCAASGFTLEDYAMHWVRQAPGKGLEWVSGINWNSEEIGYADSVKGRFTISRDNAKNSLYLQMNSLRTEDTALYYCAKVPGYSHGWIDAFDVWGQGTMVTVSS VL: not shown	1.1	3.7	0.25		
P1-068761.IgG1.3 (antibody, V domains shown) VH: EVQLVESGGGLVQPGKSLRLSCAASGFTLEDEAMHWVRQAPGKGLEWVSGINWNSEEIGYADSVKGRFTISRDNAKNSLYLQMNSLRTEDTALYYCAKVPGYSHGWIDAEDVWGQGTMVTVSS VL: not shown	71		2.6		
P1-068767_D52N_E100fF (antibody, V domains shown) VH: EVQLVESGGGLVQPGKSLRLSCAASGFTLEDYAMHWVRQAPGKGLEWVSGINWNSENIGYADSVKGRFTISRDNAKNSLYLQMNSLRTEDTALYYCAKVPGYSGGWIDAFDDWGQGTMVTVSS VL: not shown				~39	20
P1-068761_E56N_E100fF (antibody, V domains shown) VH: EVQLVESGGGLVQPGKSLRLSCAASGFTLEDEAMHWVRQAPGKGLEWVSGINWNSENIGYADSVKGRFTISRDNAKNSLYLQMNSLRTEDTALYYCAKVPGYSHGWIDAFDVWGQGTMVTVSS VL: not shown	6.5	65	1.4		
P1-068761_E30D_E56N (antibody, V domains shown) VH: EVQLVESGGGLVQPGKSLRLSCAASGFTLDDEAMHWVRQAPGKGLEWVSGINWNSENIGYADSVKGRFTISRDNAKNSLYLQMNSLRTEDTALYYCAKVPGYSHGWIDAEDVWGQGTMVTVSS VL: not shown	~32		50		
P1-070864 (P1-068761_E30D) (antibody, V domains shown) VH: EVQLVESGGGLVQPGKSLRLSCAASGFTLDDEAMHWVRQAPGKGLEWVSGINWNSEEIGYADSVKGRFTISRDNAKNSLYLQMNSLRTEDTALYYCAKVPGYSHGWIDAEDVWGQGTMVTVSS VL: not shown	370		8.3		
P1-068767_E30D_E100fF (antibody, V domains shown) VH: EVQLVESGGGLVQPGKSLRLSCAASGFTLDDYAMHWVRQAPGKGLEWVSGIDWNSENIGYADSVKGRFTISRDNAKNSLYLQMNSLRTEDTALYYCAKVPGYSGGWIDAFDDWGQGTMVTVSS VL: not shown				10000	~82
P1-068761_E32Y_H100G (antibody, V domains shown) VH: EVQLVESGGGLVQPGKSLRLSCAASGFTLEDYAMHWVRQAPGKGLEWVSGINWNSEEIGYADSVKGRFTISRDNAKNSLYLQMNSLRTEDTALYYCAKVPGYSGGWIDAEDVWGQGTMVTVSS VL: not shown	5	72	0.48		
P1-068761_E32Y_E55A (antibody, V domains shown) VH: EVQLVESGGGLVQPGKSLRLSCAASGFTLEDYAMHWVRQAPGKGLEWVSGINWNSAEIGYADSVKGRFTISRDNAKNSLYLQMNSLRTEDTALYYCAKVPGYSHGWIDAEDVWGQGTMVTVSS VL: not shown	2	23	0.31		
P1-068761_E30D_H100G (antibody, V domains shown) VH: EVQLVESGGGLVQPGKSLRLSCAASGFTLDDEAMHWVRQAPGKGLEWVSGINWNSEEIGYADSVKGRFTISRDNAKNSLYLQMNSLRTEDTALYYCAKVPGYSGGWIDAEDVWGQGTMVTVSS VL: not shown	~81		15		
P1-068761_E100fF (antibody, V domains shown) VH: EVQLVESGGGLVQPGKSLRLSCAASGFTLEDEAMHWVRQAPGKGLEWVSGINWNSEEIGYADSVKGRFTISRDNAKNSLYLQMNSLRTEDTALYYCAKVPGYSHGWIDAFDVWGQGTMVTVSS VL: not shown	1.3	20	0.19		
P1-070868 (P1-068761_E55A) (antibody, V domains shown) VH: EVQLVESGGGLVQPGKSLRLSCAASGFTLEDEAMHWVRQAPGKGLEWVSGINWNSAEIGYADSVKGRFTISRDNAKNSLYLQMNSLRTEDTALYYCAKVPGYSHGWIDAEDVWGQGTMVTVSS VL: not shown	120		3.4		
P1-068767_E55A_E100fF (antibody, V domains shown) VH: EVQLVESGGGLVQPGKSLRLSCAASGFTLEDYAMHWVRQAPGKGLEWVSGIDWNSANIGYADSVKGRFTISRDNAKNSLYLQMNSLRTEDTALYYCAKVPGYSGGWIDAFDDWGQGTMVTVSS VL: not shown					62
